T1: FLAG-tagged NHP IL-13 (cynomolgus monkey, UniProt Q5I6E4 21-132 (Macaca thibetana entry), limits assumed)
T1 chain: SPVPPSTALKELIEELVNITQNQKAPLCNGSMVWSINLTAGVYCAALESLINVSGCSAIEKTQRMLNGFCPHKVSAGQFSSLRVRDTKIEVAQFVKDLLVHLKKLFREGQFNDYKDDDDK

B1: sIL-13Rα2-Fc (soluble human IL-13 receptor alpha 2 Fc fusion) (Fc fusion, UniProt Q14627 27-343, looked up, not shown: a dimerising Fc or GST)
chain: DTEIKVNPPQDFEIVDPGYLGYLYLQWQPPLSLDHFKECTVEYELKYRNIGSETWKTIITKNLHYKDGFDLNKGIEAKIHTLLPWQCTNGSEVQSSWAETTYWISPQGIPETKVQDMDCVYYNWQYLLCSWKPGIGVLLDTNYNLFYWYEGLDHALQCVDYIKADGQNIGCRFPYLEASDYKDFYICVNGSSENKPIRSSYFTFQLQNIVKPLPPVYLTFTRESSCEIKLKWSIPLGPIPARCFDYEIEIREDDTTLVTATVENETYTLKTTNETRQLCFVVRSKVNIYCSDDGIWSEWSDKQCWEGEDLSKKTLLR
B2: humanized 13.2v.2 (antibody, V domains shown)
VH: EVQLVESGGGLVQPGGSLRLSCAASGFTFISYAMSWVRQAPGKGLEWVASISSGGNTYYPDSVKGRFTISRDNAKNSLYLQMNSLRAEDTAVYYCARLDGYYFGFAYWGQGTLVTVSS
VL: DIQMTQSPSSLSASVGDRVTITCKASESVDNYGKSLMHWYQQKPGKAPKLLIYRASNLESGVPSRFSGSGSGTDFTLTISSLQPEDFATYYCQQSNEDPWTFGGGTKVEIK
notes: Humanized form of mAb13.2; also called h13.2v2; h13.2v.2
B3: non-human primate (cynomolgus monkey) IL-13 (ligand)
chain: SPVPPSTALKELIEELVNITQNQKAPLCNGSMVWSINLTAGVYCAALESLINVSGCSAIEKTQRMLNGFCPHKVSAGQFSSLRVRDTKIEVAQFVKDLLVHLKKLFREGQFN
notes: the construct used in the assays is not described; Also used here for endogenous IL-13 of cynomolgus monkeys in the PK-PD fits; also called NHP IL-13; NHP-IL-13
B4: humanized MJ2-7 v.2-11 (antibody, human IgG1, kappa, V domains shown)
VH: EVQLVESGGGLVQPGGSLRLSCAASGFNIKDTYIHWVRQAPGKGLEWIGRIDPANDNIKYDPKFQGRFTISADNAKNSAYLQMNSLRAEDTAVYYCARSEENWYDFFDYWGQGTLVTVSS
VL: DIQMTQSPSSLSASVGDRVTITCRSSQSIVHSNGNTYLEWYQQKPGKAPKLLIYKVSNRFSGVPSRFSGSGSGTDFTLTISSLQPEDFATYYCFQGSHIPYTFGGGTKVEIKR
B5: mouse monoclonal antibody C65 (antibody, V domains shown)
VH: QVQLKESGPGLVAPSQSLSITCTVSGFSLTGYGVNWVRQPPGKGLEWLGIIWGDGSTDYNSALKSRLIINKDNSKSQVFLKMNSLQTDDTARYFCARDKTFYYDGFYRGRMDYWGQGTSVTVSS
VL: DVQMIQSPSSLSASLGDIVTMTCQASQGTSINLNWFQQKPGKAPKLLIFGASNLEDGVPSRFSGSRYGTNFTLTISSLEDEDMATYFCLQHSYLPWTFGGGTKLEIK
B6: mouse monoclonal antibody MJ 2-7 (antibody, mouse IgG1, V domains shown)
VH: EVQLQQSGAELVKPGASVKLSCTGSGFNIKDTYIHWVKQRPEQGLEWIGRIDPANDNIKYDPKFQGKATITADTSSNTAYLQLNSLTSEDTAVYYCARSEENWYDFFDYWGQGTTLTVSS
VL: DVLMTQTPLSLPVSLGDQASISCRSSQSIVHSNGNTYLEWYLQKPGQSPKLLIYKVSNRFSGVPDRFSGSGSGTDFTLKISRVEAEDLGVYYCFQGSHIPYTFGGGTKLEIK
notes: also called mAb7.1.1; murine MJ2-7

Assays:
native human IL-13 = native human IL-13 (human, UniProt P35225 34-146, limits assumed); test: cell-based or functional assay
native human IL-13, sequence (P35225 other isoform, or with tags, fused parts or gaps limits assumed): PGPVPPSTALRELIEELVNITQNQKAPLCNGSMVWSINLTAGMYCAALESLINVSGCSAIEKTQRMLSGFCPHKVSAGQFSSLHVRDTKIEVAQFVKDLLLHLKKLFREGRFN

[1] = biological target: B3; test: sandwich ELISA for total IL-13 in monkey serum, non-human primate IL-13 standards
Description: The concentrations of total IL-13 in serum samples obtained from hMJ2-7v.2-11-treated monkeys were determined using quantitative ELISA. […] After blocking and washing, the serum samples containing IL-13 from in vivo studies or the non-human primate IL-13 standards were incubated on the plate to allow for binding to the anti-IL-13 capture antibody. […] Streptavidin conjugated to HRP and the enzyme substrate 3,3′,5,5′-tetramethylbenzidine (TMB) peroxidase were added and optical densities were measured at 450 nm. The low limit of quantitation of the assay was approximately 0.15 ng/mL.

[2] = biological target: B1; test: SPR (BIACORE): sIL-13Ralpha2-Fc amine-coupled to a CM5 chip, NHP IL-13 injected at 100 nM
Description: (§1) sIL-13RI2-Fc was directly coated onto a CM5 chip by standard amine coupling. NHP-IL-13 at 100 nM concentration was injected, and its binding to the immobilized IL-13RI2-Fc was detected by BIACORE3. An additional injection of 100 nM of anti IL-13 antibodies was added, and changes in binding were monitored.

[3] = biological target: B3; test: cell-based or functional assay
[4] = biological target: T2, NHP-IL-13 in a complex with immobilised hu IL-13Rα2-Fc (cynomolgus monkey; human, UniProt Q14627 27-343, limits assumed); test: SPR (BIACORE): antibody injected over NHP IL-13 held by immobilised sIL-13Ralpha2-Fc
T2 construct: Pre-formed ligand-receptor complex on a CM5 chip; not shown: Fc part
Description: as §1

FLAG-tagged NHP IL-13 [5] = biological target: T1, FLAG-tagged NHP IL-13; test: competition ELISA: IL-13Ralpha2-Fc coated on the plate, FLAG-tagged NHP IL-13 added with rising MJ2-7; the blocked partner is IL-13Ralpha2-Fc
Description: (§2) The ability of MJ2-7 to inhibit binding of NHP IL-13 to IL-13RI1 and IL-13RI2 was tested by ELISA. Recombinant soluble forms of human IL-13RI1-Fc and IL-13RI2-Fc were coated onto ELISA plates. FLAG-tagged NHP IL-13 was added in the presence of increasing concentrations of MJ2-7. […] This provides a basis for the neutralization of IL-13 bioactivity by MJ2-7.

FLAG-tagged NHP IL-13 [6] = biological target: T1, FLAG-tagged NHP IL-13; test: competition ELISA: IL-13Ralpha1-Fc coated on the plate, FLAG-tagged NHP IL-13 added with rising MJ2-7; the blocked partner is IL-13Ralpha1-Fc
Description: as §2

Binder: B1
- STAT6 phosphorylation in HT-29 cells, IC50 (native human IL-13): 0.33 nM

Binder: B2
- binding result [1]: binds

Binder: B3
- binding result [2]: binds

Binder: B4
- STAT6 phosphorylation in HT-29 cells, IC50 (native human IL-13): 0.52 nM

Binder: B5
- fold decrease in STAT6 phosphorylation in HT-29 cells, potency against MJ2-7 (native human IL-13): ~20 fold
- fold decrease in monocyte CD23 expression, potency against MJ2-7 [3]: ~20 fold

Binder: B6
- STAT6 phosphorylation in HT-29 cells, IC50 (native human IL-13): 0.48 nM
- STAT6 phosphorylation, IC50 (native human IL-13): ~0.293 nM
- tenascin C production by BEAS-2B cells, IC50 (native human IL-13): ~0.1 nM
- CD23 expression, IC50 [3]: ~0.242 nM
- binding result [4]: no binding
- IC50 (read off the curve) (FLAG-tagged NHP IL-13 [5]): ~0.08 nM
- IC50 (read off the curve) (FLAG-tagged NHP IL-13 [6]): ~0.4 nM

From US20090068195A1 (Pfizer, published 2009)
